Measurements taken from US9994644B2, “mAB 2 anti-Met antibody” (Agency for Science, Technology and Research, priority 2013, dated 2018).
Entries after “also recorded” stand apart in the source; their conditions may differ.

Experiments:
SNU-5 cells [1] = test: Cell growth by cell count (ADAM cell counter); assay type: cell-based, human; details: SNU-5, 10 μg/mL mAb, 72 hours post treatment
Protocol: (§1) In order to determine if these antibodies have any physiological effects on tumour cells, 10 μg/mL of mAb was added to SNU-5 cells. […] This indicates SU11274 mode of mechanism is by activation of caspase which in turn result in apoptosis of SNU-5 tumour cells.
Cells were seeded and treated with anti-α-chain c-Met monoclonal antibodies for 72 hrs. Cells were harvested and counted using the automated ADAM cell counter (Digital Bio, Korea).

[2] = target: T1, native c-Met on live SNU-5 cells (Homo sapiens, UniProt P08581); test: Flow cytometry of antibody binding to live SNU-5 cells; details: 1 μg/mL mAb, FITC secondary antibody
T1 construct: native c-Met expressed on the cell surface of SNU-5 cells; host or cells: SNU-5
T1 sequence (P08581 25-1390): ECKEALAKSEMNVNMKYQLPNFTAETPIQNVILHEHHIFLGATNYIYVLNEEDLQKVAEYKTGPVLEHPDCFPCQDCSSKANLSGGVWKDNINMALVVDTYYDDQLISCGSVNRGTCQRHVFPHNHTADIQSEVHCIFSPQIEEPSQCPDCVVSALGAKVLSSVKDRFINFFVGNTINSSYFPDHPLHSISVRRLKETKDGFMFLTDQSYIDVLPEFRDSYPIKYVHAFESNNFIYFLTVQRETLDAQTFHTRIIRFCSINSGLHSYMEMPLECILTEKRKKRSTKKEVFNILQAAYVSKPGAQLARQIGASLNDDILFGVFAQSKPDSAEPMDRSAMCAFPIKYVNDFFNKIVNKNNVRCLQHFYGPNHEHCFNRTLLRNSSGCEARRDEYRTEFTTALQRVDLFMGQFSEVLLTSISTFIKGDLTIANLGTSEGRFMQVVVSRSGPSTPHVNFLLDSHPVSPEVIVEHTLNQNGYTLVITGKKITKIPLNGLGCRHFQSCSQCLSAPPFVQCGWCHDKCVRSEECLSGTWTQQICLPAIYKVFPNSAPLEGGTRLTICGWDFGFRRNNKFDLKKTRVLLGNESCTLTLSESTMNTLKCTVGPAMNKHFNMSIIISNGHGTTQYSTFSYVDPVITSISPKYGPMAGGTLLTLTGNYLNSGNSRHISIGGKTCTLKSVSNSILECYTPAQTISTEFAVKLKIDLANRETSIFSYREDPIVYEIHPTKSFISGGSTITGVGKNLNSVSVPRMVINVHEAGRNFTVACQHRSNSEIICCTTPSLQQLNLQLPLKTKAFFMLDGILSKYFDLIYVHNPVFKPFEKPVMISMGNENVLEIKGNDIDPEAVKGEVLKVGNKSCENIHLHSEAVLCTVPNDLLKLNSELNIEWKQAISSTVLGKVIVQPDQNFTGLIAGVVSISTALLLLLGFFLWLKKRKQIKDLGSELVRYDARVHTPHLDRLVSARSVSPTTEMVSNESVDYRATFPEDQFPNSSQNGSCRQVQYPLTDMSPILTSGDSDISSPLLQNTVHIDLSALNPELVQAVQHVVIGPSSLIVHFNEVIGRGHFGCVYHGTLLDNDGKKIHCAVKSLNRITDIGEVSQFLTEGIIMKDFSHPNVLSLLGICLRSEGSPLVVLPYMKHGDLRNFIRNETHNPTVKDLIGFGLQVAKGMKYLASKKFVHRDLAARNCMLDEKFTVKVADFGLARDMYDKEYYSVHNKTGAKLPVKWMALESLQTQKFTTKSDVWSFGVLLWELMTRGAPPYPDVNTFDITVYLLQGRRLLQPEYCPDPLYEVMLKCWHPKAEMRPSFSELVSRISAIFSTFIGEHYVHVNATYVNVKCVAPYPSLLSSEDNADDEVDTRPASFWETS
Protocol: Flow cytometry was used to determine if our monoclonal antibodies could bind to native c-Met on live cells. SNU-5 cells were incubated with 1 μg/mL of monoclonal antibody. Binding of anti-α-chain c-Met monoclonal antibodies to native c-Met expressed on the cell surface of SNU-5 cells was detected using anti-mouse secondary antibody conjugated with FITC dye. T47D, a human breast cancer cell line expressing low levels of c-Met, was used in this assay to determine if the antibodies bind non-specifically to the cell surface.
SNU-5 cells (1×10^6 cells) were washed once in cold PBS before blocking in 1% BSA/PBS. Cells were washed twice before incubating with anti-α-chain c-Met monoclonal antibodies. 1 μg/mL anti-α-chain monoclonal antibodies were used. Cells were incubated with goat anti-mouse IgG FITC-conjugated secondary antibodies (Invitrogen) and finally resuspended in 1% BSA/PBS. Flow cytometry was performed using Becton Dickinson (U.S.A.) FACScan. Cell Quest (Becton Dickinson) and FlowJo (Tree Star Inc., U.S.A.) software was used for data analysis.

[3] = tested on: caspase activation in SNU-5 cells; test: Caspase-Glo 3/7 caspase activation assay; assay type: cell-based, human; details: SNU-5, 72 hrs; mAb 10 μg/mL, SU11274 5 μM
Protocol: as §1
CellTiter-Glo® luminescent cell viability assay and Caspase-Glo® 3/7 Assay (Promega, U.S.A.) were used to determine cell viability and caspase activation respectively. SNU-5 cells (1×10^5 cells) were seeded in each 96-well and treated for 72 hrs before analysis. Cell viability and caspase activation were performed according to manufacturer's protocol. Luminescence was read using the EnVision plate reader (PerkinElmer, U.S.A.).

SNU-5 cells [4] = test: Cell proliferation by CellTracker Green BODIPY dye retention; assay type: cell-based, human; details: SNU-5, 10 μg/mL mAb, 6 days
Protocol: CellTracker BODIPY dye is a membrane permeable dye that enters cells freely. Once in the cell, the dye is converted to a membrane impermeable product which labels the cell green. The dye is passed on to dividing daughter cells but is not transferable to neighbouring cells. Dividing cells would fail to retain the green dye as it is being diluted to progeny cells. Cells were treated with 10 μg/mL of monoclonal antibodies for 6 days and dye retention in cells was analysed by flow cytometry.
SNU-5 cells were stained with 5 μM of CellTracker BODIPY dye for 30 mins. Stained cells were seeded and treated with anti-α-chain c-Met monoclonal antibodies for 6 days. Cells were harvested and dye retention in live cells were analysed by flow cytometry.

B1: mAb 2: murine bivalent anti-α-chain c-Met monoclonal antibody, IgG1, kappa; CDRs SEQ ID NO: 2-7; epitope IEE and CPDC (antibody, listed as Homo sapiens)
heavy: QVQLKESGGGLVQPGGSLTLSCATSGFTFTDHYMSWVRQPPGKALEWLAFIRNKAKGYTTEYNASVRGRFTISRDNSQNIVYLQMNTLRTEDSATYYCARDGVGIAYWGQTLVTVSAAKTTPPSVYPLAP
light: SIVMTQSPLSLPVSLGDQASISCRSSQSLENINGNTYKNWYFQKPGQSPQLLIYRVSNRVSGVLDRFSGSGSGTDFTLKITRVEAEDLGVYFCLQVTHVPWTFGGGTKLEIKRADAAPTKSIS
cell growth (cell count) (SNU-5 cells [1]): strongest cell growth reduction; also recorded: reduction of SNU-5 cell growth; also recorded: most effective in reducing cell proliferation
binding to native c-Met (fluorescence intensity) [2]: strongest fluorescence intensity; also recorded: strongest binding; also recorded: highest fluorescence staining; also recorded: high affinity and specificity; also recorded: strongly
caspase activation [3]: reduced caspase activation; also recorded: do not activate caspase activation
CellTracker Green BODIPY fluorescence retention (SNU-5 cells [4]): retained significant levels of green fluorescence
